Source: the DeepSol protein solubility set

Test: soluble on expression in E. coli; label from the status in PepcDB or PDB records

Sequence | soluble on expression in E. coli
MGSDKIHHHHHHMQGVPEHFTDERDYAQFRHLPTLPGIELYHAHICRYAFEPHTHEAFGIGTIDDGAEQFRYRGAKHIAPVDSLVLMNPDELHTGESATEDGWRYRMIYIPPDVLESVSGEKGWWFTDVVRHDPATARQLAMTLAALWQTTDPLASESLLLSLIALFRPHAHIAQRQVVEPFHRFDVVKAYLRENFAHTITLKELAALVSLSPYHFLRQFKTQFHVTPHQMLMAIRLYEAKQMLTRGMAAAHVALAVGLTDQAHLTRTFAQRYGVTPIRYQKQVYPTLR | not soluble
MGSDKIHHHHHHMFNGRPFPVDAFPKIIRNAIYEVEQHTQAPQGLIAASALGVISLACQNRIDVCRLNNLRGPVSLFLMTLAESGERKSTVDKLLMKPLYQLEEDLFEKYTHDLTAWRNDEAIFNIEKKALMSKLKSDIRRNKDHLATNERLKELLTTNPKAPVRFKFLFNDATPAAIKAHLCGHWRSVGIMSDEAGIIFNGYTLNELPFINKMWDGSIFTVERKNEPEKLIRDARITLSLMVQPNVFKGYIDRKGDMAKGIGFFARCLMCQPASTQGNRKISNPIFSNEHLPVFHQRLMEIVNESIIKINENNRICLRFSAEAERHWIEFYNQVESEMRMIGLLYDFKDYASKMAENMARLAALLHYFSGDGGDISVTAVKAAVEIVAWYIEEYIRLFSKKEEFSLDVSEADELYCWIKDYCTQKFSSCIKKNIILQFGPNKFRNRDKANELIRILISQNKIFISSWGKTKIINITHCVF | not soluble
MLGVCYYPEHWPKERWKEDARRMREAGLSHVRIGEFAWALLEPEPGRLEWGWLDEAIATLAAEGLKVVLGTPTATPPKWLVDRYPEILPVDREGRRRRFGGRRHYCFSSPVYREEARRIVTLLAERYGGLEAVAGFQTDNEYGCHDTVRCYCPRCQEAFRGWLEARYGTIEALNEAWGTAFWSQRYRSFAEVELPHLTVAEPNPSHLLDYYRFASDQVRAFNRLQVEILRAHAPGKFVTHNFMGFFTDLDAFALAQDLDFASWDSYPLGFTDLMPLPPEEKLRYARTGHPDVAAFHHDLYRGVGRGRFWVMEQQPGPVNWAPHNPSPAPGMVRLWTWEALAHGAEVVSYFRWRQAPFAQEQMHAGLHRPDSAPDQGFFEAKRVAEELAALALPPVAQAPVALVFDYEAAWIYEVQPQGAEWSYLGLVYLFYSALRRLGLDVDVVPPGASLRGYAFAVVPSLPIVREEALEAFREAEGPVLFGPRSGSKTETFQIPKELPPGPLQALLPLKVVRVESLPPGLLEVAEGALGRFPLGLWREWVEAPLKPLLTFQDGKGALYREGRYLYLAAWPSPELAGRLLSALAAEAGLKVLSLPEGLRLRRRGTWVFAFNYGPEAVEAPASEGARFLLGSRRVGPYDLAVWEEA | soluble
MAHHHHHHMGFSLLHPLPSAIHAGSNSSRLAVQRNPCRRSTEWCHGGSSGKQKKQRHCRGSEAGRPSGLPPNPRAPPPHHHRSAEGPRRPARHRRRHRRCTEDRPSSKPPAAHPRCRWARSPRRLSEHLGRLPLLGRRILLGCSQVDILRWGAAAGINALRNGDGCPLAILVQ | not soluble
MGSDKIHHHHHHMLQQRIQSLEEQEHLPSLLSADAQELAHQLQEHQKKIFSPSAQKTMRLFSPAEAAAFIGIGEGYLRQIASEGHGPQPLSNGRRMYAMEDIDRIRRVLDEGSKTGKYIPHRRPGEKLQVVSVMNFKGGSGKTTTSAHLAQYLALRGYRVLAIDLDPQASLSALFGHQPELDVGEGETLYGAIRYEAPRPIAEVVRSTYTANLHLIPGNLELMEFEHETPKAMIAGSTETMFFARIGEVLSEIESFYDIVVIDCPPQLGFLTMSALCAATSVLITVHPQMLDVMSMSQFLSMTSELMAVVENAGGRTSYDWMRYLVTRFEPNDGPQSQMTGFMRAIFGNRMLQNAMVKSTAISDAGVTKQTLYEVERSQFIRGTYDRAMDSLSLVNAEIEEMIRRVWGRK | not soluble
MGSDKIHHHHHHMIRDNIMSQIDLPTDFDFQQAGRQVLEIEREGLAQLDQYINEDFTHACETIFRCGGKVVVMGMGKSGHIGRKMAATFASTGTSAFFVHPGEAAHGDLGMVTPQDVVIALSNSGESNEILALIPVLKRQQVKLICITSRPESSMARAADIHLCVKVPKEACPLGLAPTSSTTAALVMGDALAVALLEARGFTAEDFALSHPGGALGRKLLLRVNDIMHTGDEIPHVGLQATLRDALLEITRKNLGMTAICDDDMNIIGIFTDGDLRRVFDTGVDMRDASIADVMTRGGIRIRPGTLAVDALNLMQSRHITCVLVADGDHLLGVVHMHDLLRAGVV | not soluble
